Values of other authors in publication PMC4847942.
pKd: −log10 of the molar value. Where two headings read alike, the source gives them in different places.

Tests used:
Bcl-XL (Homo sapiens) [1] = molecular target: Bcl-XL (Homo sapiens) (UniProt Q07817)
Bcl-XL (Homo sapiens) [2] = molecular target: Bcl-XL (Homo sapiens) (UniProt Q07817); remark: listed apart in the source

UniProt Q07817, sequence (Q07817 whole entry): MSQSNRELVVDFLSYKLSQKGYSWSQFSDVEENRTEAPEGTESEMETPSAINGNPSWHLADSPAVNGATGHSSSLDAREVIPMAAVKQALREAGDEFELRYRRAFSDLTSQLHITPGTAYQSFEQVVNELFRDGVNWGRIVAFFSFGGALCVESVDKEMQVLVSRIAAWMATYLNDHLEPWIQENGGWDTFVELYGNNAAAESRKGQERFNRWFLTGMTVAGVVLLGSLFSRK

pKd (Bcl-XL (Homo sapiens) [1])	pKd (Bcl-XL (Homo sapiens) [2])	Substance
6.57	–	Bid BH3 helix BH3 (from UniProt P55957)
–	7.41	stapled Bid BH3 helix BH3 (from UniProt P55957)
